In experiment [1] the target is T1, 重组人NGF蛋白 (recombinant human nerve growth factor) (human, UniProt P01138 122-241).
T1 construct: also called 重组NGF蛋白; 重组NGF抗原
Put plainly: SPR, Biacore 8K, NGF coupled to CM5 chip, antibody as analyte, 1:1 binding model. (SPR reads the build-up and loss of mass on a sensor chip optically.)

Experiment [2] addresses T1, 重组人NGF蛋白 (recombinant human nerve …). Described as above. This is another data set of the same source.
The target in a further experiment is T2, 重组NT4 (神经营养因子4) (Homo sapiens (Human), UniProt P34130 81-210).
T2 sequence: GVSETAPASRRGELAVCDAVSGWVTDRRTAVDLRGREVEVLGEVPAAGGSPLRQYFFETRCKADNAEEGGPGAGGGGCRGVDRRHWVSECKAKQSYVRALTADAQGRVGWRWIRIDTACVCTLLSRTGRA
Put plainly: SPR, Biacore 8K, CM5 chip, antibody as analyte.

The target of a further experiment is T3, 重组NT3 (神经营养因子3) (Rattus norvegicus (Rat), UniProt P18280 140-258).
T3 sequence: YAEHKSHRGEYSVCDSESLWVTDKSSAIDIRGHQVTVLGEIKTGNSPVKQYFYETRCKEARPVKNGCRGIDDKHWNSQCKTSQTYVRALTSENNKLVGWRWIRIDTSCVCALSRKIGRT
Put plainly: SPR, Biacore 8K, CM5 chip, antibody as analyte.

Experiment [3] concerns the target T4, 重组BDNF (脑源性神经营养因子) (Helarctos malayanus (Malayan sun bear) …, UniProt O18753 129-247).
T4 sequence: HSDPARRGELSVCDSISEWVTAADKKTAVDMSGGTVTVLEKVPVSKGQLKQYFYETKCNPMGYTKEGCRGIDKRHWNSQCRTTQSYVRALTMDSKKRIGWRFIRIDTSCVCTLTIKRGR
Put plainly: competition ELISA: coated NGF, antibody preincubated with recombinant BDNF. Background: An ELISA detects its analyte on a solid surface through an enzyme-linked reagent.

In experiment [4] the target is T4, 重组BDNF (脑源性神经营养因子). Put plainly: SPR, Biacore 8K, CM5 chip, antibody as analyte.

Here are results for five molecules from patent CN113444176A (WUHAN RENFU INNOVATIVE DRUG R&D CENTER CO LTD; HUMANWELL …, dated 2021).

Broadly, the Kd is the free concentration of one partner at which half of the binding sites on the other are occupied at equilibrium, for simple one-to-one binding. For orientation: koff means a measure of how fast the partners let go of each other. As usually defined, the kon is a measure of how fast the partners come together.

Substitutions are numbered along the chain they refer to. Names may count otherwise. Read-outs that look alike come from different tables or passages of the source.

T1 sequence (P01138 122-241 limits assumed): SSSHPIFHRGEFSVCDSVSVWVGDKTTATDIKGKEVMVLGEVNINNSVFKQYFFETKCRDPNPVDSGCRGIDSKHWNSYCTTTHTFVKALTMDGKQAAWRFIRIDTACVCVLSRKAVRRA

B1: 鼠源抗体G9 (anti-NGF mouse monoclonal antibody G9) (antibody, mouse IgG1, kappa, V domains shown)
VH: EVQLQQSGTVLARPGTSVRMSCKASGYTFTSYWMHWIKQRPGQGLEWIGAIYPGNSDTSYTQKFKGKAKLTAVTSTSTAYMELSSLTNEDSAVYYCTTPYGYDEDWYFNVWGAGTTVTVPS
VL: NIVMTQSPKSMSMSVGERVTLSCKASENVGTYVSWYQQKPEQPPKLLIYGASNRYTGVPDRFTGCGSATDFTLTISSVQAEDLADYHCGQSYSYPLTFGAGTKLELKR
notes: Hybridoma antibody; also called 杂交瘤单抗G9
With B1, in experiment [1], the Kd was 1.29 nM, the koff amounted to 0.000283 s⁻¹ and the kon worked out at 219000 M⁻¹ s⁻¹.

B2: 人源化抗NGF抗体Ab01 (antibody, human IgG4 S228P, kappa, V domains shown)
VH: EVQLVESGGGLVKPGGSLRLSCAASGFTFSRYAMSWVRQAPGKGLEWVSTISSGGSYTYYPDSVKGRFTISRDNAKNSLYLQMNSLRAEDTAVYYCARHGEFYGTTFDVHYFDYWGQGTLVTVSS
VL: AIQLTQSPSSLSASVGDRVTITCRASESVDSYGNSFMHWYQQKPGKAPKLLIYLASNLESGVPSRFSGSGSGTDFTLTISSLQPEDFATYYCQQNNEDPLTFGGGTKVEIKR
notes: Humanised from F3; human IgG4 (S228P) heavy constant region and human kappa constant region; expressed in CHO cells
Consider B2, for which, in experiment [2], the Kd worked out at 0.151 nM, the koff is 4.35e-05 s⁻¹ and the on-rate (kon) turned out to be 287000 M⁻¹ s⁻¹. Further, the binding result with 重组NT4 (神经营养因子4) is listed as “no binding”. Further, the binding result in the experiment with 重组NT3 (神经营养因子3) was “no binding”. Moreover, the binding result in the experiment with 重组BDNF (脑源性神经营养因子) [3] was “no binding”.

B3: 人源化抗NGF抗体Ab02 (antibody, human IgG4 S228P, kappa, V domains shown)
VH: B2 VH with K13Q, E46V, S78T
VL: EIVLTQSPATLSLSPGERATLSCRASESVDSYGNSFMHWYQQKPGQAPRLLIYLASNLESGIPDRFSGSGSGTDFTLTISRLEPEDFAVYYCQQNNEDPLTFGGGTKVEIKR
notes: as for B2
For the molecule B3, in experiment [2], the equilibrium dissociation constant (Kd) amounted to 0.137 nM, the dissociation rate constant (koff) was determined as 4.02e-05 s⁻¹ and the kon worked out at 294000 M⁻¹ s⁻¹. Besides, in the experiment with 重组BDNF (脑源性神经营养因子) [4], the binding result was “no binding”. For the same molecule, the binding result in the experiment with 重组NT4 (神经营养因子4) is “no binding”. In addition, the binding result with 重组NT3 (神经营养因子3) is listed as “no binding”.

B4: 人源化抗NGF抗体Ab03 (antibody, human IgG4 S228P, kappa, V domains shown)
VH: B2 VH with K13Q
VL: B3 VL with D64A, R81S
notes: as for B2
For the molecule B4, the Kd in experiment [2] was 0.0918 nM. The koff in experiment [2] was 2.78e-05 s⁻¹. In addition, the kon in experiment [2] worked out at 303000 M⁻¹ s⁻¹. Besides, the binding result with 重组BDNF (脑源性神经营养因子) [4], in the experiment with 重组NT4 (神经营养因子4) and with 重组NT3 (神经营养因子3) was “no binding” throughout.

B5: 鼠源抗体F3 (anti-NGF mouse monoclonal antibody F3) (antibody, mouse IgG1, kappa, V domains shown)
VH: EVMLVESGGDLVKPGGSLKLSCAASGFTFSRYAMSWVRQTPEKRLEWVATISSGGSYTYYPDSVKGRFTISRDNAKNTLYLQMSSLRSEDTAMFYCARHGEFYGTTFDVHYFDYWGQGTTLTVSS
VL: YIVLTQSPASLAVSLGQRATISCRASESVDSYGNSFMHWYQQKPGQPPKLLIYLASNLESGVPARFSGSGSRTDFTLTIDPVEADDAATYYCQQNNEDPLTFGTGTKLELKR
notes: Hybridoma antibody; also called 杂交瘤单抗F3
On to B5, for which, in experiment [1], the Kd was 0.335 nM, the koff stood at 0.000121 s⁻¹ and the kon is 363000 M⁻¹ s⁻¹.
